Experimental data: the supplement of paper PMC9732359
± gives the uncertainty stated by the source.

Test: protein stability index of a GFP-peptide fusion (yeast GPS) (PSI 1-4); higher = more stable; sorted into four equal gates, so the index is relative within each strain
How it was run: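 The protein stability index of a peptide was calculated by multiplying its read frequency in each gate by that gate's number and adding the products. The peptides were tiled 17-residue stretches of yeast proteins, fused downstream of GFP on a Cherry-expressing plasmid and carried in yeast as a pooled library. Mid-log cultures in leucine-free medium were sorted into four equal gates by GFP/Cherry ratio, and each gate's plasmids were PCR-amplified and Illumina-sequenced.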

In the case of KFFQKKIHLYEKKLEDY [YGL172W/NUP49], the protein stability index (doa10∆) is reported as 2.83 ± 0.093, the protein stability index (pdr5∆) is reported as 2.75 ± 0.089 and the protein stability index (san1∆) is reported as 2.71 ± 0.071. The protein stability index (ubr1∆) was 2.94 ± 0.089.
Work on KFKLLNGLAIRRAAYGV [RPS3] yielded a protein stability index (doa10∆) of 2 ± 0.046, a protein stability index (pdr5∆) of 2.15 ± 0.047 and a protein stability index (san1∆) of 1.88 ± 0.062. It also gave a protein stability index (ubr1∆) of 1.86 ± 0.048.
For KFMTNSTAFVPTIEYVQ [ARP9], the protein stability index (doa10∆) was 2.22 ± 0.062, the protein stability index (pdr5∆) was 2.65 ± 0.048 and the protein stability index (san1∆) was 2.83 ± 0.076. For the same sequence, the protein stability index (ubr1∆) was 2.62 ± 0.041.
With KFPTRKIYMLYSLQPSV [RPC34] the protein stability index (pdr5∆) was 2.13 ± 0.23.
For KFRSSILRKSFDFLMNM [RPN2], the protein stability index (doa10∆) was 2.1 ± 0.13, the protein stability index (pdr5∆) was 2.4 ± 0.1 and the protein stability index (san1∆) was 2.04 ± 0.12. It also gave a protein stability index (ubr1∆) of 2.4 ± 0.072.
Work on KFSLPFEQKGSQTTTND [YLR335W/NUP2] yielded a protein stability index (doa10∆) of 3.25 ± 0.1, a protein stability index (pdr5∆) of 3.08 ± 0.1 and a protein stability index (san1∆) of 3.11 ± 0.099. It also gave a protein stability index (ubr1∆) of 3.09 ± 0.094.
KFSSRHGQKGVCGIIVK [RET1] showed a protein stability index (doa10∆) of 3.56 ± 0.095, a protein stability index (pdr5∆) of 3.51 ± 0.092 and a protein stability index (san1∆) of 3.71 ± 0.051. It also gave a protein stability index (ubr1∆) of 3.14 ± 0.12.
KGHKFNNTKAGRRKTWK [RPL15A] showed a protein stability index (doa10∆) of 2.79 ± 0.063, a protein stability index (pdr5∆) of 2.93 ± 0.081 and a protein stability index (san1∆) of 2.8 ± 0.093. For the same sequence, the protein stability index (ubr1∆) was 3.1 ± 0.1.
For KGKYRNRRWTQRRGPLV [RPL4A], the protein stability index (doa10∆) was 2.97 ± 0.17 and the protein stability index (pdr5∆) was 3.29 ± 0.18.
For KGSSLASAASEAIRDPK [SSN8], the protein stability index (doa10∆) was 2.43 ± 0.053, the protein stability index (pdr5∆) was 2.62 ± 0.063 and the protein stability index (san1∆) was 2.65 ± 0.065. The protein stability index (ubr1∆) was 2.99 ± 0.049.
In the case of KGTNDEGTSISVHLIEC [YCS4], the protein stability index (doa10∆) is reported as 2.78 ± 0.094, the protein stability index (pdr5∆) is reported as 2.73 ± 0.071 and the protein stability index (san1∆) is reported as 2.69 ± 0.11. It also gave a protein stability index (ubr1∆) of 3.2 ± 0.059.
Work on KGVTEKDAVDYSKIPNI [RRP6] yielded a protein stability index (doa10∆) of 3.24 ± 0.12, a protein stability index (pdr5∆) of 3.18 ± 0.092 and a protein stability index (san1∆) of 3.25 ± 0.08. It also gave a protein stability index (ubr1∆) of 3.3 ± 0.069.
KHYKNIPRNSPLSDLKK [RPC82] gave a protein stability index (doa10∆) of 2.88 ± 0.15, a protein stability index (pdr5∆) of 2.97 ± 0.17 and a protein stability index (san1∆) of 2.59 ± 0.19. For the same sequence, the protein stability index (ubr1∆) was 2.97 ± 0.083.
With KIADNISKDENEDQFLE [YDL116W/NUP84] the protein stability index (doa10∆) was 2.92 ± 0.14, the protein stability index (pdr5∆) was 2.98 ± 0.13 and the protein stability index (san1∆) was 2.86 ± 0.13. For the same sequence, the protein stability index (ubr1∆) was 3.33 ± 0.1.
KIATRGVMLWKEFDETI [FAS1] gave a protein stability index (doa10∆) of 3.02 ± 0.22, a protein stability index (pdr5∆) of 2.94 ± 0.22 and a protein stability index (ubr1∆) of 2.94 ± 0.15.
For KIDGNPDELIKAGVEAI [PRE5], the protein stability index (doa10∆) was 3.32 ± 0.17, the protein stability index (pdr5∆) was 3.44 ± 0.2 and the protein stability index (san1∆) was 3.29 ± 0.083. For the same sequence, the protein stability index (ubr1∆) was 3.36 ± 0.092.
In the case of KIDLASGKITDFIKFDA [RPS4A], the protein stability index (doa10∆) is reported as 3.26 ± 0.072, the protein stability index (pdr5∆) is reported as 3.21 ± 0.078 and the protein stability index (san1∆) is reported as 3.13 ± 0.07. The protein stability index (ubr1∆) was 3.35 ± 0.082.
KIESSVESQFSAGRLYA [RPS8A] showed a protein stability index (doa10∆) of 2.81 ± 0.11, a protein stability index (pdr5∆) of 2.85 ± 0.087 and a protein stability index (san1∆) of 1.96 ± 0.15. For the same sequence, the protein stability index (ubr1∆) was 2.77 ± 0.13.
With KIFIAVVWYQRLTMGNV [RRI2] the protein stability index (doa10∆) was 1.3 ± 0.044, the protein stability index (pdr5∆) was 1.25 ± 0.038 and the protein stability index (san1∆) was 1.28 ± 0.082. It also gave a protein stability index (ubr1∆) of 1.27 ± 0.036.
In the case of KIFQTTPEKDLFIGLFT [YCS4], the protein stability index (doa10∆) is reported as 2.1 ± 0.088, the protein stability index (pdr5∆) is reported as 1.84 ± 0.055 and the protein stability index (san1∆) is reported as 2.41 ± 0.11. For the same sequence, the protein stability index (ubr1∆) was 2.58 ± 0.066.
Work on KIFVETKFSKLIGRPPL [FAS1] yielded a protein stability index (doa10∆) of 1.97 ± 0.29, a protein stability index (pdr5∆) of 2.54 ± 0.093 and a protein stability index (san1∆) of 2.35 ± 0.11. It also gave a protein stability index (ubr1∆) of 1.79 ± 0.059.
